Key:
MDA-MB231 cells = assay: Cellular localization by immunostaining (nuclear transduction); format: cell-based, human; conditions: 50 μM, two hours, serum free media, anti-His immunostaining
Protocol: To determine the cellular localization of the ANTP/DN-MAML (TR4) fusion protein, immunostaining on human mammary epithelial breast cancer MDA-MB231 cells was carried out. MDA-MB231 cells were cultured to sub-confluence in Dulbecco's modified Eagle's medium containing 10% calf serum at 37° C. The coverslips with cells attached were washed, and incubated with ANTP/DN-MAML purified fusion protein in serum free media for two hours at a concentration of 50 μM. Cells were washed three times and fixed with 4% paraformaldehyde for 15 minutes. After brief washes, the coverslips were incubated with blocking solution and subsequently with anti-His primary and FITC-conjugated secondary antibody.

Notch (NICD) = assay: Notch inhibition, Western blot of activated Notch (NICD); format: cell-based, human; conditions: MDA-MB231 cells treated for two hours
Protocol: To investigate the potential role of ANTP/DN-MAML to inhibit Notch signaling activation the high metastatic mammary epithelial cell line MDA-MB231 cell line was treated with the ANTP/DN-MAML fusion protein for two hours. Total protein was extracted from cells using SDS buffer. Total protein concentrations were determined using the BCA protein assay kit. Total protein ([…]) was diluted in 5× sample buffer ([…] Tris-HCl pH 6.8, 500 mM dithiotheitol, 10% SDS, 0.5% bromophenol blue, 50% glycerol), heated at 100° C. and analyzed by SDS-PAGE. Electrophoresis was carried out in running buffer (25 mM Tris HCl, 250 mM glycine, 0.1% SDS) for 60 minutes or until the bromophenol blue had run out of the gel. Separated proteins were transferred to nitrocellulose membrane in ice cold transfer buffer (39 mM glycine, 48 mM Tris HCl) electrophoretically for 90 minutes at 100V. Western blots were probed with the […] in blocking buffer at 4° C. over night with anti-Mouse IgG peroxidase produced in goat […] (Sigma A9917). Nitrocellulose membranes were washed 4 times for five minutes each in TBS-T buffer. […]

[1] = Biodistribution by Western blot of organs after intravenous injection; format: in vivo, CD1 nude mice; conditions: 4 mg/kg intravenously via tail vein, 2 hours after injection
Protocol: To determine whether Antennapedia could be used to deliver the DN-MAML in vivo, CD1 nude mice were injected intravenously via tail vein with 4 mg/kg of the ANTP/DN-MAML fusion protein. The mice were perfused for 5 min with phosphate-buffered saline and sacrificed 2 hours following the injection. The expression of ANTP/DN-MAML in each organ was determined by Western blot analysis. […] As such, the targeted delivery system of the present invention may have wide applications in the administration of therapeutic proteins to the central nervous system.

[2] = test system: MDA MB231 xenograft tumor; assay: Penetration into outer, middle and inner core of xenografted mammary tumors (Western blot, immunohistochemistry); format: in vivo, CD1 Nude mice; conditions: tail vein injection
Protocol: Purified ANTP/DN-MAML fusion protein was injected into CD1 Nude mice xenografted with MDA MB231 human mammary epithelial breast cancer cells via the tail vein. The mice were perfused for 5 min with phosphate-buffered saline and sacrificed 2 hours following the injection. The tumor was removed and dissected under a stereoscope to separate the outer, middle, and inner core of the tumor. The ANTP/DN-MAML in each core of the tumor was determined by Western blot.
In order to establish the localization of ANTP/DN-MAML within the tumors, immunohistochemistry on the above mammary cancer samples was performed.

Breast cancer xenografts = assay: In vivo tumor reduction in breast cancer xenografts; design: species or system mice; conditions: 4 mg/kg every two days, n=6 per group, vs PBS control
Protocol: Breast cancer xenografts were established in mice. The mice were divided into two groups, and injected every two days with either PBS as a control, or with 4 mg/kg ANTP/DN-MAML fusion protein (n=6 per group) (FIG. 4A). Control mice treated with PBS developed rapidly growing tumors. The control mice were euthanized after twenty days. […] (FIG. 4B).

[3] = Immunogenicity in immuno-competent mice by ELISA; format: in vivo; conditions: intravenous 0.2 ml, 2.5 mg/ml without adjuvant, once per day for 5 days; 2.5 mg per week; monitored over 4 months
Protocol: The immunogenicity of ANTP/DN-MAML was investigated in immuno-competent mice. Animals were immunized intravenously with ANTP/DN-MAML (0.2 ml, 2.5 mg/ml) without adjuvant, once per day for 5 days. Mice were bled once per week over a 4-month period, and the immune response monitored by ELISA. Blood samples were diluted 1:10, 1:100 and 1:1000 in PBS, and the immune response was monitored by ELISA on native ANTP/DN-MAML (coated at 50 μg/ml) and detected using anti-mouse antibodies. […] This dose is equivalent to 100 mg/kg in humans.

[4] = In vivo maximum tolerated dose study; design: species or system mice
Protocol: ANTP/DN-MAML tail vein administration was started when the mice reached an age of 12 weeks. Mice were continuously monitored for signs of hypoglycemic shock or drug side effects and were sacrificed if body weight loss exceeded 15%. Various dosages were tested starting at 4 mg/kg/day. […] This experiment was terminated by sacrificing the animals three days after injection.

Colo205 tumors = assay: Colon cancer xenograft model; format: in vivo, female nude mice; conditions: 0.2 ml of 4 mg/ml every other day, Colo205 xenografts
Protocol: High levels of Notch are expressed in colon cancer cells. ANTP/DN-MAML was administered to female nude mice bearing xenografted Colo205 tumors. Injections of 0.2 ml of 4 mg/ml ANTP/DN-MAML protein were administered to the mice every other day. This dose is equivalent to 2 g of ANTP/DN-MAML fusion protein per patient.

Substance	cellular localization (MDA-MB231 cells)	downregulation of Notch activation (NICD) (Notch (NICD))	detection in brain (blood-brain barrier crossing) [1]	signal in liver, kidney, heart, lung, spleen and brain tissue vs PBS injected mice ([1]; Western blot)	detection in outer, middle and inner core of the tumor ([2]; 2 hours, Western blot, vs PBS control)	localization within the tumors (immunohistochemistry) ([2]; MDA MB231 xenograft)	tumor volume (Breast cancer xenografts)	immune response (ELISA) [3]	side effects at the maximum tolerated dose ([4]; 57 mg/kg/day, tail vein)	maximum tolerated dose ([4]; tail vein administration, mice aged 12 weeks) [mg/kg/day]	colon cancer cell growth in vivo (Colo205 tumors)
ANTP/DN-MAML: 14.18 KDa fusion protein of antennapedia homeodomain, 62 amino acid DN/MAML sequence and pentahistidine tag (SEQ ID NO.:2)	nuclear localization	Downregulation of Notch activation occurred	detected in the brains	significant signal	detected in the outer, middle and inner core of the tumor	Intense ANTP/DN-MAML staining within the nucleus of mammary cancer cells	no increase in tumor volume after thirty-two days	does not raise an immune response	loss of appetite, weight loss and hypoglycemia	57	reduced colon cancer cell growth in vivo
ANTP: Trojan peptide; 60 amino acid Drosophila antennapedia homeodomain (SEQ ID NO.:4), used alone as control [reference compound]	–	not in cells treated with ANTP alone	–	–	–	–	–	–	–	–	–

Source: patent US8748112B2, “Methods of determining cancer cell responsiveness to a notch inhibitory agent” (Trojan Technologies, Ltd., priority 2007, dated 2014)
